Measured values: PMC4180279 (Biochemistry, 2014)

Tests used:
[1] = molecular target: Calmodulin (CaM) expressed from pET-15b (UniProt P0DP23 1-149); assay: NMR titration; 1H-15N HSQC of [15N]NCS-1 (0.8 mM) with PQIQ peptide, then equimolar unlabelled CaM/Ca2+ added to the preformed complex; 50 mM Tris pH 6.5, 50 mM NaCl, 5 mM CaCl2, 300 K; details: both partners purified
[2] = molecular target: Neuronal calcium sensor-1 (NCS-1), N-terminal His tag removed with TEV protease (UniProt P62166 1-190); assay: other fluorescence titration; intrinsic tryptophan fluorescence of 1 μM NCS-1 (excitation 280 nm, emission 290-410 nm), PQIQ peptide added stepwise; 50 mM Tris pH 7.5, 50 mM NaCl, 5 mM CaCl2; room temperature; logistic fit; triplicate; details: both partners purified
Chain of Neuronal calcium sensor-1 (NCS-1), N-terminal His tag removed with TEV protease (P62166 whole entry): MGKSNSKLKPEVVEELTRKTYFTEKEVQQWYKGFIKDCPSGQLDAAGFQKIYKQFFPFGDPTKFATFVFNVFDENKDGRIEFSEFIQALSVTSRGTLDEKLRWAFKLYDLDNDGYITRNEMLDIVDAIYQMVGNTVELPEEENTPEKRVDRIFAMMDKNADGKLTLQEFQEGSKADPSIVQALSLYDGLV

binding result [1]: binds
EC50 [2]: 1040 ± 70 nM
Binder: TVGKIYAAMMIMEYYRQSKAKKLQAMR [PQIQ peptide, synthetic P/Q peptide corresponding to residues 1903-1929 of the human P/Q receptor]
